In the DeepSol protein solubility set:

Assay: soluble on expression in E. coli; label from the status in PepcDB or PDB records

Row | Sequence | soluble on expression in E. coli
1 | GPGSMPLERSFIDPGHASMGYEAGLIPRLRRDSIVRGVLEENEDMLREIDLLRDTVTKQAQELFTATKRIHVLESRLARLEGAEDASHERTDDSDNVEEVTSVDKAGILRSIFRAISSCQFGDRHTRIRAYKQGLVRKSAEKARDFGEKSEKKSELPGKEQQDFLGHAFHESNKRLDEVSSLLQSYRKTPSFLVSAYDELVIDCMMEIIRLSKKMNLMTVGDFGALAD | not soluble
2 | MKKEVTEISSYDATNLVFYVNGKRVEEKDVDPKMTLATYLRDKLKLTGTKIGCNEGGCGACTIMISHIENGEIKHFSANSCLMPVCGVFGKAVTTVEGIGSVAKNRLHPVQERLAKAHGSQCGFCTPGFVMAMYALLRNNPNPTISDINLGLQGNLCRCTGYRPILEAFYSFAVDESGTLKVTEENGCGMGENCCKVKKTACGGSDETTPGYTGGERKRKIQLSDMSDCKPYDPTQELIFPPELKLHGYESMSFAYDHHHTKWYQPVSYDDLLSLKRELPHARLISGNSELAIELKFRFIDLPAVINPRQVKVLHEKHLENDGVYMGTGMSLTDMDNYSVQLMKDLPREQTAVLKHVHEMLHWFAGIHVRNVASVAGNIATASPISDLNPIWMASNALVVLDSEARGEKRVHIDEKFFLGYRKTVIQQDEIIKAVIVPLLEENEHFAAYKQAQRREDDIAIVTGAFLVKLDPKTLVVEKIRISYGGMAPTTKLALTTMEKLIGEKWSQTFLDKALGLLSDELKLPAGVPGGMSQYRLSLALSFFFKFFLGVSKKLELTEIKYVDADVKIGQNVPETLYATQLYQEVKANQPAHDPLGRPIKHVSGDKHTTGEAVYCDDINVADCNHIAFVLSPIAHGTLNSIDYTAALEIDGVVGTIDASDVTTGAQMGHHSDTPVFVKETITFHGQPIAAIVATDHEIARKAASLVKLDYSVEKPIVTIKQALEAESFVFKHFVIHSSLNDNEQVIKSDWSKYDRIVEGSIDMGGQEHFYLETQQCIVIPHEDDELEIIISNQCVNDVQIEVAKCLGMAQHKISTKVKRIGGGFGGKESTGAILAVPASLAAKKFGRPMKFKFERFDDMAITGTRHPFTLQYKLAVDENGKFLDLDYTALSNSGHTIDLSMGVMQRAMVHADNVYKFENADITGKMCKTNLASNTAFRGFGGPQGMFGTEIMVKHVAEKFGFNHDEVRVKNFYKEGDCTPFGMHLNQCNVTRTWDECRKNSDYDNRLEEVKKFNDSNKFRKRGIYLTPTRFGIGFGLKQLNQAGALVLVYTDGSVLVSHGGMEMGQGLHTKILQIAARCLEIPIERIHIHDTSTDKVPNASATAASVGSDMNGLAVQDACRQINERLERFKKLDPNGTWDDWVKAAYVDRVSLSASGFGIIHHEPVDFFNGKGAELFGYSVYGTACCEVEIDCLTGDHHLLRTDIVMDVGESLNPAIDIGQIEGAFIQGYGLFTMEEIKIRPDGIRLTRGPGNYKIPSADDAPRHFNVSLLGNSSNKMGIFSSKAIGEPPLFLGSCAFFAIREAVRAYRIQNGNADYFVFHSPATPERIRMACEDFVTSHVPELPEEGTYTPWITSV | not soluble
3 | MARKNQKAPWEPEEEIIWVSKSEMKRDMEELQKLGEELVGLKPAVLEKFPLSEDLREAIADAQRFKNEARRRQLQRIGKLMRYEDPEPIQAALDKVRNKHSQATAALHKLEMLRDRVVEEGDKAIDDVMELYPEADRQRLRQLARQAAKEKKAGKPAKSYREIFQILKALNEEE | soluble
4 | VSFNANEVTHVDTPQEALAASLNKFGEVNLEYMENLSETGRQELLTQLENRIFYNPMMKNYEIKDRFIAGNVVAKVEWIENYLKDYPDDDASKKSLEALQKAIPEPISFELLDFNLGERWIPVSVYEEFAGYLFEAKAHIHYTESIDEFSVSFEETNANITDRYYVKGEKRGYYGNDLLKHALHNTVPDITKTVQDEEGNDIKVRDAEAIQLADAKINEIRSAFTGWLNEQLPEFKQHLADMYNRKFNCYVRPDYDGSLQSF | soluble
5 | MSGWPRIYYKLLNLPLSILVKSKSIPAEPAQELGLDTSRPIMYVLPYNSKADLLTLRAQCLAHDLPDPLEPLEIDGALLPRYVFIHGGPRVFTYYTPKEESVKLFHDYLDLHRSNPALDVQMVPVSVMFGRAPGREKGEDNPPLRMLNGVQKFFAISWLGRDSFVRFSPSVSLRRMADEHGTDKIIAQKLARVARMHFARQRLAAVGPRLPARQDLFNKLLASKAIARAVEDEARSKKISHEKAQQNAIALMEEIAANFSYEMIRLTDRILGFTWNRLYQGINVHNAERVRQLAHDGHEIVYVPCHRSHMDYLLLSYVLYHQGLVPPHIAAGINLNFWPAGPIFRRLGAFFIRRTFKGNKLYSTVFREYLGELFSRGYSVEYFVEGGRSRTGRLLDPKTGTLSMTIQAMLRGGTRPITLVPIYIGYEHVMEVGTYAKELRGATKEKESLPQMLKGLSKLRNLGQGYVNFGEPMPLMTYLNQHVPEWRESIDPIEAIRPAWLTPTVNSIAADLMVRINNAGAANAMNLCCTALLASRQRSLTREQLTEQLDCYLDLMRNVPYSTDSTVPAASAGELIAHALQMNKFEVEKDTIGDIIILPREQAVLMTYYRNNIAHMLIMPSLMAAIITQHRRISRDALQQHVEALYPMLKAELFLRWEREELASVIDALASEMQRQGLITLQDDELHINPTHSRTLQLLAAGARETLQRYAITFWLLSANPSINRSTLEKESRTVAQRLSVLHGINAPEFFDKAVFSSLVLTLRDEGYISDTGDAEPAETMKIYQMLADLITSDVRLTIESATQGE | not soluble
6 | MSLNKPFERRSLLRGAGALTAASLAPWAAGCAADDDDALTFFFAANPDELRPRMRVVNEFQRRYPDIKVRALLSGPGVMQQLATFCAGGKCPDVLMAWELTYAELADRGVLLDLNTLLARDQAFAAELKSDSIGALYETFTFNGGQYAFPEQWSGNFLFYNKQLFDDAGVPPPPGSWERPWSFAEFLDAAQALTKQGRSGRDRQWGFVNAWVSFYAAGLFAMNNGVPWSVPRMNPTHLNFDHDGFLEAVQFYADLTNKHKVAPSAAEQQSMSTADLFSVGKAGIALAGHWRYQTFDRADGLDFDVAPLPIGPRGRAACSDIGVTGLAIAATSRRKDQAWEFVKFATGPVGQALIGESRLFVPVLRSAINSHGFANAHRRVGNLAVLSEGPAYSEGLPVTPAWEKIAALMDRYFGPVLRGSRPATSLTGLSQAVDEVLRNEGHHHHHH | not soluble
7 | MDIQLVADGLQFPEGPIAMADGSVILTEIQGQRLTRVWPDGRKETVAETGGGPNGAAIGPDGAIYVTNNGGSFQFFEANGLNIPGPTPPTHTGGAIQRVDLKTGAITTLYTECDGKPLVGPNDLVFDKQGGFWFTDHGCSTPDGRKYGALYYALPDGSKITRWRDHFVSPNGVGLSPDEKTVYMADTMLGRLWSFDVASPGVLADAVPLLPGNVVCNLPGYQLLDSLAVEADGKVCVATIINGGITAFAPDGSTEHYAFPDVIVTNICFGGADMRDAWITASGTGKLYKARWPRPGLKLNFNGLEHHHHHH | soluble
8 | MRKTLNVVVNGERTEIVTYKGTVQGALHDNGITLAPKDKVTPSLESKISKNETITINKAVNVKVKTEDGEKEIVSAEDNVEDMLKSEGISFDDDDKILPDKKESLKDGMNVEVVKVDVKKVTEVHPIEFTTEVKKDESKPQTYTEVLNDGQDGEKKVTRELVYENGKEVSNNVIQELVVKEPVNKEVVKGTKETQTLSRGGESINFKKKLSVKSTAYNHPLGSAEAYTASGMHVLRDPNGYSTIAVDPSVIPLGTKLYVEGYGYAIAADTGGAIKGNRVDLFFNTEAEASNWGVRNLDVYILNLEHHHHHH | soluble
9 | MGHEAKHPIIIGITGNIGSGKSTVAALLRSWGYPVLDLDALAARARENKEEELKRLFPEAVVGGRLDRRALARLVFSDPERLKALEAVVHPEVRRLLMEELSRLEAPLVFLEIPLLFEKGWEGRLHGTLLVAAPLEERVRRVMARSGLSREEVLARERAQMPEEEKRKRATWVLENTGSLEDLERALKAVLAELTGGAKEGRG | soluble
10 | MPNNEASEEAKWYVVHTYSGYENKVKANLEKIVENRNLQDYILDIVVPMEEQIEIKDGKKKASLKKVFPGYVLVKMIMNDESWYVVRNTRGVTGFVGPGSKAVPLTDEEIRAMGVEEFAPVLDYEVGDNVRVVSGPLENFIGIVEEINLEKKKVRVSVSMFGRETPVELELHQIQKI | soluble
11 | GMELTALDKLEIMELAARFEMSLDKEDVENYLATFASDGALQGFWGIAKGKEELRQGFYAMLDTFARGKRHCSSNAIIQGNYDEATMESYLTVVNREDLNRAGSAFVKDQVRKINGKWYLILRQIEVDPSLPLLQQSQQAGANA | soluble
12 | MRILIASQPIAGHVLPLREIARELARRGHELRWYTGRKFRPQVEAAGAVWEGFVHARDYDDANFDAAFPGRSARRGLAQLLFDLRHVFVGQMEGQFYDLRDLERRWRPDVVLADQTVGAALLREELGGPPVALLGVLPLGIASRDTAPFGLGLAPLGGAAGQLRNRALQVLTERVVFRGISAQLADLCTWLGLPARSFAPPVAPSLMLQPSVPRLEYLRRDLPPQVRFIGPLVLPAGEFTPPAWWNDILTAERPVVLVTQGTLATRPEQLLRPALAALADEDVLVVAAGVAPERLGPLPANARAAAFVPFTALLPHVAVSLTNGGYGGTVQALSHGVPCVVAGRSEDKAEVAARVAYSGAGLNLGTATPSPARIRAAVRRVLREPAFREQAGELGHELRQHDAPREAADWLETLGGKKLEHHHHHH | not soluble
13 | MGHHHHHHSHMLPVELVRHDVKKTDETSQVELMLQVDPDLFWFNGHFTGQPLLPGVAQLDWVMHYATTVLAQGWTFLSIENIKFQQPILPGKTLRLVLIWHAGKQSLTFSYSILEGDTERTASSGKIKLTPIMEDNPCQ | soluble
14 | MSPQTRPDAMSVVQERQVLRVGTLINPTSYYFDHDREQGFEYDLAKRFADRLGVELEMVPRFDVNDLFTMLRRGEVDIVAAGLDRTSTRAQLFRFSPPYDIISQKVVFKQGSRQRPRDLQQITDGEIVVVEGSSHHEFLKSLGDSIPTLKWRATRDHDAVELLQMVISGEVDYTITDSTALDIQRRFHPDLSVAFTVKHDQDIAWALPQGKDDSLFAAVIEYFGEIRSSGRLAHIKEQHFGHVKQFNYVTTSLFIEAVEQVLPGYIETFKEHSGSLDWRLLAAISYQESLWNPRAVSPTGVRGMMMLTLPTAKAMGVKSRLNAEQSIRGGARYLERMLNRVPARIPQPDRTWFAIAAYNIGFGHLEDARIITERQGGNPDRWVDVKKRLPLLRQKQFYRHTRYGFARGDEPVTYVGNIRRFYDTLKYLDEQGRLLEHHHHHH | soluble
15 | GPGSMYRSDTDERKRRQSVSWRKRASFIELDCGEDSFFVANNYKVIGVADGVGGWRAEGVDPSLFANALMENAKLFAETHRGERDPEKILDAAYTKVVKDGIVKVGSSTACVATLRKDDDGSHKLDVANLGDSGVMVVRNRSMYFRAHEKVHGFNAPFQLAVLPQPMVGRAFSDRVQDCVRESVPVQEGDVIVMGTDGLFDNRFNSQLAADAGWIGKVEESPIAKIPLVGFFLSGILDEKIDYVDPYRVAQRIITDAYKTSVNPDTNSPWASMLRQFGQTDAKGGKPDDITVLLSRVSTREELSNSTSW | not soluble
